125 sequences from the supplement of paper PMC9112550, “Optimization of the antimicrobial peptide Bac7 by deep mutational scanning” (BMC Biology, 2022) can be followed below.
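Note: peptides expressed intracellularly from a pBAD plasmid library in pooled LB shake-flask culture, induced with 0.3% L-arabinose, DNA abundance read by NGS, three biological replicates, DESeq2 with apeglm shrinkage.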

For the data set, the system named is Escherichia coli TOP10. Description: shrunken log2 fold change of peptide-encoding DNA abundance (4.5 h post-induction vs induction); higher = less antimicrobial activity (less host growth inhibition). To be noted: time post-induction: 4.5 h; library: site-saturation at positions 5, 18, 19, 20.
As for RRIRCRPPRLPRPRPRPIAQPRP, the “shrunken log2 fold change” value was found to be 0.00422.

For RRIRWRPPRLPRPRPRPCMYPRP, the “shrunken log2 fold change” value is -0.325.

Regarding RRIRSRPPRLPRPRPRPIDGPRP, the “shrunken log2 fold change” value was 0.0145.

With RRIRSRPPRLPRPRPRPLQRPRP, the “shrunken log2 fold change” value was 0.0641.

Consider RRIRFRPPRLPRPRPRPGAVPRP, for which the “shrunken log2 fold change” value turned out to be 0.223.

In the case of RRIRMRPPRLPRPRPRPCIMPRP, the “shrunken log2 fold change” value was -0.533.

In the case of RRIRYRPPRLPRPRPRPKNLPRP, the “shrunken log2 fold change” value was -0.36.

As to RRIRKRPPRLPRPRPRPNGEPRP, the “shrunken log2 fold change” value turned out to be 0.189.

In the case of RRIRIRPPRLPRPRPRPCRPPRP, the “shrunken log2 fold change” value was -0.0283.

With RRIRVRPPRLPRPRPRPWLWPRP, the “shrunken log2 fold change” value is 0.475.

For RRIRIRPPRLPRPRPRPYWPPRP, the “shrunken log2 fold change” value is -0.28.

As for RRIRQRPPRLPRPRPRPMSWPRP, the “shrunken log2 fold change” value is -0.0294.

For the sequence RRIRTRPPRLPRPRPRPWRVPRP, the “shrunken log2 fold change” value is -0.00468.

In the case of RRIRRRPPRLPRPRPRPDPMPRP, the “shrunken log2 fold change” value amounted to 0.326.

For the sequence RRIRYRPPRLPRPRPRPHESPRP, the “shrunken log2 fold change” value turned out to be 0.00952.

Regarding RRIRSRPPRLPRPRPRPAGKPRP, the “shrunken log2 fold change” value was -0.284.

With RRIRVRPPRLPRPRPRPAYCPRP, the “shrunken log2 fold change” value is -0.112.

RRIRFRPPRLPRPRPRPSSYPRP: the “shrunken log2 fold change” value was -0.676.

For RRIRDRPPRLPRPRPRPYRRPRP, the “shrunken log2 fold change” value was -0.0062.

Take RRIRWRPPRLPRPRPRPQVLPRP: the “shrunken log2 fold change” value was -0.0271.

For the sequence RRIRLRPPRLPRPRPRPEPHPRP, the “shrunken log2 fold change” value stood at 0.324.

On to RRIRIRPPRLPRPRPRPRSCPRP, for which the “shrunken log2 fold change” value was determined as 0.16.

For the sequence RRIRGRPPRLPRPRPRPSAMPRP, the “shrunken log2 fold change” value came to 0.989.

Regarding RRIRWRPPRLPRPRPRPSWIPRP, the “shrunken log2 fold change” value came to 0.0261.

For RRIRIRPPRLPRPRPRPPRVPRP, the “shrunken log2 fold change” value is 0.278.

RRIRWRPPRLPRPRPRPGCGPRP: the “shrunken log2 fold change” value amounted to 0.784.

As to RRIRRRPPRLPRPRPRPAGEPRP, the “shrunken log2 fold change” value was 0.75.

In the case of RRIRSRPPRLPRPRPRPPEDPRP, the “shrunken log2 fold change” value was found to be 0.0304.

In the case of RRIRNRPPRLPRPRPRPTTKPRP, the “shrunken log2 fold change” value was -0.0801.

As for RRIRERPPRLPRPRPRPNMPPRP, the “shrunken log2 fold change” value is -0.706.

As for RRIRARPPRLPRPRPRPTMFPRP, the “shrunken log2 fold change” value was 0.121.

For RRIRWRPPRLPRPRPRPIQYPRP, the “shrunken log2 fold change” value is -0.101.

As to RRIRGRPPRLPRPRPRPWWHPRP, the “shrunken log2 fold change” value was -0.22.

Take RRIRYRPPRLPRPRPRPSEIPRP: the “shrunken log2 fold change” value was -0.271.

As for RRIRVRPPRLPRPRPRPDQHPRP, the “shrunken log2 fold change” value was -0.0679.

With RRIRDRPPRLPRPRPRPKAVPRP, the “shrunken log2 fold change” value was -0.00884.

For RRIRKRPPRLPRPRPRPYDPPRP, the “shrunken log2 fold change” value stood at 0.0113.

RRIRFRPPRLPRPRPRPGGGPRP: the “shrunken log2 fold change” value was 0.727.

For RRIRERPPRLPRPRPRPLPTPRP, the “shrunken log2 fold change” value is -0.0242.

Regarding RRIRMRPPRLPRPRPRPPDPPRP, the “shrunken log2 fold change” value came out at 1.25.

As to RRIRMRPPRLPRPRPRPWQIPRP, the “shrunken log2 fold change” value is -0.224.

As for RRIRKRPPRLPRPRPRPNNDPRP, the “shrunken log2 fold change” value came out at 0.0263.

RRIRVRPPRLPRPRPRPEHLPRP: the “shrunken log2 fold change” value was -0.171.

Consider RRIRKRPPRLPRPRPRPAADPRP, for which the “shrunken log2 fold change” value stood at 0.941.

In the case of RRIRPRPPRLPRPRPRPYSLPRP, the “shrunken log2 fold change” value is -0.139.

For RRIRMRPPRLPRPRPRPQSPPRP, the “shrunken log2 fold change” value was determined as 0.213.

For the sequence RRIRGRPPRLPRPRPRPLVSPRP, the “shrunken log2 fold change” value stood at 0.355.

With RRIRMRPPRLPRPRPRPVASPRP, the “shrunken log2 fold change” value worked out at 0.58.

Turning to RRIRKRPPRLPRPRPRPHNNPRP, the “shrunken log2 fold change” value was -0.244.

Take RRIRFRPPRLPRPRPRPYADPRP: the “shrunken log2 fold change” value was -0.0222.

For the sequence RRIRLRPPRLPRPRPRPYPNPRP, the “shrunken log2 fold change” value is -1.27.

Regarding RRIRSRPPRLPRPRPRPIGHPRP, the “shrunken log2 fold change” value is -0.171.

Regarding RRIRPRPPRLPRPRPRPIWTPRP, the “shrunken log2 fold change” value is -0.262.

RRIRSRPPRLPRPRPRPTVSPRP: the “shrunken log2 fold change” value was -0.221.

Consider RRIRGRPPRLPRPRPRPCAMPRP, for which the “shrunken log2 fold change” value is -0.102.

For RRIRTRPPRLPRPRPRPRILPRP, the “shrunken log2 fold change” value is -0.0615.

For the sequence RRIRFRPPRLPRPRPRPQIIPRP, the “shrunken log2 fold change” value is -0.149.

For RRIRRRPPRLPRPRPRPPRSPRP, the “shrunken log2 fold change” value was determined as 0.904.

Regarding RRIRARPPRLPRPRPRPLNYPRP, the “shrunken log2 fold change” value stood at 0.0659.

Regarding RRIRMRPPRLPRPRPRPCIGPRP, the “shrunken log2 fold change” value was found to be 0.0503.

RRIRFRPPRLPRPRPRPWPDPRP: the “shrunken log2 fold change” value stood at 0.0228.

RRIRVRPPRLPRPRPRPLPFPRP: the “shrunken log2 fold change” value was -0.367.

On to RRIRMRPPRLPRPRPRPCLWPRP, for which the “shrunken log2 fold change” value worked out at 0.0121.

As for RRIRWRPPRLPRPRPRPNIQPRP, the “shrunken log2 fold change” value was -0.0736.

With RRIRVRPPRLPRPRPRPVNGPRP, the “shrunken log2 fold change” value was determined as 0.158.

On to RRIRGRPPRLPRPRPRPWQNPRP, for which the “shrunken log2 fold change” value is 0.041.

Regarding RRIRCRPPRLPRPRPRPFQEPRP, the “shrunken log2 fold change” value is -0.101.

For RRIRSRPPRLPRPRPRPVEQPRP, the “shrunken log2 fold change” value is -0.0605.

As for RRIRDRPPRLPRPRPRPHLKPRP, the “shrunken log2 fold change” value amounted to 0.143.

Turning to RRIRGRPPRLPRPRPRPAYRPRP, the “shrunken log2 fold change” value was 0.181.

RRIRARPPRLPRPRPRPCPHPRP: the “shrunken log2 fold change” value was -0.329.

Regarding RRIRKRPPRLPRPRPRPDITPRP, the “shrunken log2 fold change” value turned out to be 2.24.

For the sequence RRIRGRPPRLPRPRPRPFFDPRP, the “shrunken log2 fold change” value was determined as 0.541.

For RRIRFRPPRLPRPRPRPTVGPRP, the “shrunken log2 fold change” value is -0.142.

On to RRIRHRPPRLPRPRPRPSPAPRP, for which the “shrunken log2 fold change” value was determined as 0.108.

As for RRIRWRPPRLPRPRPRPAFIPRP, the “shrunken log2 fold change” value was 0.0835.

As for RRIRTRPPRLPRPRPRPHRYPRP, the “shrunken log2 fold change” value was -0.604.

With RRIRIRPPRLPRPRPRPVCCPRP, the “shrunken log2 fold change” value was -0.0749.

For RRIRCRPPRLPRPRPRPVEHPRP, the “shrunken log2 fold change” value was 0.0272.

As to RRIRWRPPRLPRPRPRPQCRPRP, the “shrunken log2 fold change” value is -0.00115.

On to RRIRHRPPRLPRPRPRPLAGPRP, for which the “shrunken log2 fold change” value was determined as 0.312.

As for RRIRYRPPRLPRPRPRPMPCPRP, the “shrunken log2 fold change” value is -0.0166.

Turning to RRIRIRPPRLPRPRPRPFRQPRP, the “shrunken log2 fold change” value came out at 0.0326.

Consider RRIRARPPRLPRPRPRPKTVPRP, for which the “shrunken log2 fold change” value is 0.141.

Consider RRIRQRPPRLPRPRPRPQQCPRP, for which the “shrunken log2 fold change” value is -0.132.

Take RRIRTRPPRLPRPRPRPPLSPRP: the “shrunken log2 fold change” value was -0.0606.

Consider RRIRSRPPRLPRPRPRPLLMPRP, for which the “shrunken log2 fold change” value amounted to 0.128.

Take RRIRPRPPRLPRPRPRPGFEPRP: the “shrunken log2 fold change” value came to 0.225.

On to RRIRCRPPRLPRPRPRPENHPRP, for which the “shrunken log2 fold change” value was -0.415.

For the sequence RRIRQRPPRLPRPRPRPSHSPRP, the “shrunken log2 fold change” value is -0.102.

Turning to RRIRIRPPRLPRPRPRPVHQPRP, the “shrunken log2 fold change” value is -0.398.

Take RRIRPRPPRLPRPRPRPRWRPRP: the “shrunken log2 fold change” value is 0.542.

With RRIRDRPPRLPRPRPRPLFYPRP, the “shrunken log2 fold change” value was -0.258.

Regarding RRIRERPPRLPRPRPRPHRCPRP, the “shrunken log2 fold change” value was -0.0136.

As to RRIRDRPPRLPRPRPRPPIEPRP, the “shrunken log2 fold change” value is -0.0618.

Consider RRIRVRPPRLPRPRPRPGSKPRP, for which the “shrunken log2 fold change” value came to 0.0731.

RRIRHRPPRLPRPRPRPVTCPRP: the “shrunken log2 fold change” value was 0.0254.

RRIRERPPRLPRPRPRPFRQPRP: the “shrunken log2 fold change” value is 0.198.

RRIRKRPPRLPRPRPRPMSRPRP: the “shrunken log2 fold change” value stood at 0.0843.

For the sequence RRIRLRPPRLPRPRPRPKTAPRP, the “shrunken log2 fold change” value is 0.037.

On to RRIRDRPPRLPRPRPRPLHSPRP, for which the “shrunken log2 fold change” value was 0.0372.

RRIRERPPRLPRPRPRPPFSPRP: the “shrunken log2 fold change” value was -0.241.

Regarding RRIRVRPPRLPRPRPRPDDEPRP, the “shrunken log2 fold change” value is -0.125.

RRIRYRPPRLPRPRPRPTPNPRP: the “shrunken log2 fold change” value worked out at 0.507.

RRIRRRPPRLPRPRPRPDRAPRP: the “shrunken log2 fold change” value is 0.322.

For the sequence RRIRSRPPRLPRPRPRPEWVPRP, the “shrunken log2 fold change” value came out at 0.146.

As to RRIRMRPPRLPRPRPRPPRAPRP, the “shrunken log2 fold change” value was determined as 1.78.

Turning to RRIRSRPPRLPRPRPRPRFIPRP, the “shrunken log2 fold change” value was 0.00415.

RRIRRRPPRLPRPRPRPNAWPRP: the “shrunken log2 fold change” value was 0.597.

Turning to RRIRQRPPRLPRPRPRPDQDPRP, the “shrunken log2 fold change” value amounted to 0.192.

In the case of RRIRDRPPRLPRPRPRPVPQPRP, the “shrunken log2 fold change” value came out at 0.0622.

For the sequence RRIRLRPPRLPRPRPRPVVHPRP, the “shrunken log2 fold change” value worked out at 0.93.

For RRIRMRPPRLPRPRPRPTNYPRP, the “shrunken log2 fold change” value was -0.212.

Regarding RRIRGRPPRLPRPRPRPEQFPRP, the “shrunken log2 fold change” value is 0.846.

RRIRMRPPRLPRPRPRPGAEPRP: the “shrunken log2 fold change” value came out at 3.05.

Turning to RRIRWRPPRLPRPRPRPEKKPRP, the “shrunken log2 fold change” value is 0.0589.

For RRIRNRPPRLPRPRPRPIPLPRP, the “shrunken log2 fold change” value came out at 0.0142.

For RRIRRRPPRLPRPRPRPYNQPRP, the “shrunken log2 fold change” value was -0.207.

RRIRERPPRLPRPRPRPRWHPRP: the “shrunken log2 fold change” value was found to be 0.0135.

In the case of RRIRNRPPRLPRPRPRPVPRPRP, the “shrunken log2 fold change” value amounted to 0.0283.

For RRIRVRPPRLPRPRPRPVIAPRP, the “shrunken log2 fold change” value is -0.0291.

With RRIRWRPPRLPRPRPRPMYSPRP, the “shrunken log2 fold change” value was -0.612.

As to RRIRTRPPRLPRPRPRPYSAPRP, the “shrunken log2 fold change” value was -0.206.

RRIRCRPPRLPRPRPRPVFIPRP: the “shrunken log2 fold change” value is -0.612.

For RRIRYRPPRLPRPRPRPVMCPRP, the “shrunken log2 fold change” value is -0.266.
